Laboratory results from patent US20250381289A1 (Genmab, published 2025).
Blank lines part the entries; values can stand above or below the binder they belong to.

Experiments:
[1] = target: T1, cMET on EGFR and cMET co-expressed tumor cell lines (UniProt P08581 25-1390, limits assumed); experiment: flow cytometry, EBC-1 cells (co-express EGFR and cMET; both arms contribute)
T1 construct: whole, on cells

[2] = target: T2, EGFR on EGFR and cMET co-expressed tumor cell lines (UniProt P00533 25-1210, limits assumed); experiment: as above
T2 construct: whole, on cells

Human cMET = target: T3, Human cMET; experiment: ELISA, plate coated with 100 ng/well human cMET recombinant protein, HRP anti-human Fc, OD450
T3 construct: also called human cMET recombinant protein
T3 chain: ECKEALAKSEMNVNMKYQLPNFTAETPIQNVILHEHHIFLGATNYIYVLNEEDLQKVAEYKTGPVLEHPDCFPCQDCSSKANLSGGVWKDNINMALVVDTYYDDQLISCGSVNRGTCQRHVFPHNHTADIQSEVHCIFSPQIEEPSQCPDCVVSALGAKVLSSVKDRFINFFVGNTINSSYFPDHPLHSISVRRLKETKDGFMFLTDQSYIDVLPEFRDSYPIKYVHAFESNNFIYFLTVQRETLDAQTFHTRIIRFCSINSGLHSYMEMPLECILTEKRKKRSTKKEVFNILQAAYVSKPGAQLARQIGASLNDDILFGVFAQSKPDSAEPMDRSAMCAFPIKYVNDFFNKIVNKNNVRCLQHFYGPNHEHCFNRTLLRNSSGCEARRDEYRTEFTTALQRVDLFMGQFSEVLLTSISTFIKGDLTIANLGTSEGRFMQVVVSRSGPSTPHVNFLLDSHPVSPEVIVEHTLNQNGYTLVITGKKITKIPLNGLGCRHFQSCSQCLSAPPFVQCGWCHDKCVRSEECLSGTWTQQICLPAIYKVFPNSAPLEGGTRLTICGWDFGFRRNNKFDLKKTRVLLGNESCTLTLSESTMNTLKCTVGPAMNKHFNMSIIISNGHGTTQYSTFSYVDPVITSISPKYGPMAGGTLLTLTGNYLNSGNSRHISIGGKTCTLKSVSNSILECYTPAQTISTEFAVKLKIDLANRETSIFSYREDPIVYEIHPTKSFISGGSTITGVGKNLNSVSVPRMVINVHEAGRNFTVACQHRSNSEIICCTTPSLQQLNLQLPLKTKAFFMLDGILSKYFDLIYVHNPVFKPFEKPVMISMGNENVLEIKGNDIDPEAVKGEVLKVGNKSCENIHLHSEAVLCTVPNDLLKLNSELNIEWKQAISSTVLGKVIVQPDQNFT

[3] = target: T1, cMET on EGFR and cMET co-expressed …; experiment: flow cytometry on CAL-27 cells (co-express EGFR and cMET), PE anti-human Fc; signal of the whole bispecific, not resolved by arm
[4] = target: T2, EGFR on EGFR and cMET co-expressed …; experiment: as above
Human EGFR = target: T4, Human EGFR (human, UniProt P00533); experiment: ELISA, plate coated with 100 ng/well human EGFR recombinant protein, HRP anti-human Fc, OD450
T4 construct: recombinant protein coated on the ELISA plate; also called human EGFR recombinant protein

[5] = target: T1, cMET on EGFR and cMET co-expressed …; experiment: flow cytometry on EBC-1 cells (co-express EGFR and cMET), PE anti-human Fc; signal of the whole bispecific, not resolved by arm
[6] = target: T2, EGFR on EGFR and cMET co-expressed …; experiment: as above
[7] = target: T1, cMET on EGFR and cMET co-expressed …; experiment: flow cytometry on SNU-5 cells (co-express EGFR and cMET), PE anti-human Fc; signal of the whole bispecific, not resolved by arm
[8] = target: T2, EGFR on EGFR and cMET co-expressed …; experiment: as above
[9] = target: T1, cMET on EGFR and cMET co-expressed …; experiment: flow cytometry, MKN-45 cells
[10] = target: T1, cMET on EGFR and cMET co-expressed …; experiment: flow cytometry, NCI-H441 cells
[11] = target: T1, cMET on EGFR and cMET co-expressed …; experiment: flow cytometry, NCI-H1975 cells
human cMET-Fc = target: T5, human cMET-Fc (human, UniProt P08581 25-932); experiment: blocking ELISA: coated human cMET-Fc, antibody titrated, then human HGF-His (blocked ligand), anti-His-HRP
T5 construct: not shown: Fc part, not described

[12] = target: T1, cMET on EGFR and cMET co-expressed …; experiment: flow cytometry, MKN-45 cells; remark: listed apart in the source
[13] = target: T1, cMET on EGFR and cMET co-expressed …; experiment: flow cytometry, MKN-45 cells; remark: listed apart in the source

B1: Bsab 44 (bispecific antibody, human IgG1, kappa, L234A L235A)
anti EGFR knob chain (scFab): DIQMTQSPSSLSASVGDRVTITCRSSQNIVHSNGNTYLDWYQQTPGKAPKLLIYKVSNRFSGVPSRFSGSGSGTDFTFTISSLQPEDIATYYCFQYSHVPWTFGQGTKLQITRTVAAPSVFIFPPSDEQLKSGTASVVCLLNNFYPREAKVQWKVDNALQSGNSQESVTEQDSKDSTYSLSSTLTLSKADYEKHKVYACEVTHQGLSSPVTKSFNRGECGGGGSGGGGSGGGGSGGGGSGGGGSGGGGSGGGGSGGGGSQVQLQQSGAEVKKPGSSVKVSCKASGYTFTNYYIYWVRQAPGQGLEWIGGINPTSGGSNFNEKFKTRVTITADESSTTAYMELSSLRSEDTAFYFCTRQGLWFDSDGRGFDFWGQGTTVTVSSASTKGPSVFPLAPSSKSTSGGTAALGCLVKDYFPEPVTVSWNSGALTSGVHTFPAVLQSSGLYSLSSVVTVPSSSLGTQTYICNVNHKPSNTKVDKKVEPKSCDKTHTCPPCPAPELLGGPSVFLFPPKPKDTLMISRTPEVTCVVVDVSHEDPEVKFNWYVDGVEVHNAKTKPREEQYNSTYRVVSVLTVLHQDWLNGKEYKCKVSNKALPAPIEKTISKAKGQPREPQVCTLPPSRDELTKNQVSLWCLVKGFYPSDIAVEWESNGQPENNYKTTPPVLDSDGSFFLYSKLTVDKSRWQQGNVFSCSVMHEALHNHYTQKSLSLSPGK
anti cMET hole chain (scFab): DIQMTQSPSSLSASVGDRVTITCKSSQSLLYTSSQKNYLAWYQQKPGKAPKLLIYWASTRESGVPSRFSGSGSGTDFTLTISSLQPEDFATYYCQQYYAYPWTFGQGTKVEIKRTVAAPSVFIFPPSDEQLKSGTASVVCLLNNFYPREAKVQWKVDNALQSGNSQESVTEQDSKDSTYSLSSTLTLSKADYEKHKVYACEVTHQGLSSPVTKSFNRGECGGGGSGGGGSGGGGSGGGGSGGGGSGGGGSGGGGSGGGGSEVQLVESGGGLVQPGGSLRLSCAASGYTFTSYWLHWVRQAPGKCLEWVGMIDPSNSDTRFNPNFKDRFTISADTSKNTAYLQMNSLRAEDTAVYYCATYRSYVTPLDYWGQGTLVTVSSASTKGPSVFPLAPSSKSTSGGTAALGCLVKDYFPEPVTVSWNSGALTSGVHTFPAVLQSSGLYSLSSVVTVPSSSLGTQTYICNVNHKPSNTKVDKKVEPKSCDKTHTCPPCPAPEAAGGPSVFLFPPKPKDTLMISRTPEVTCVVVDVSHEDPEVKFNWYVDGVEVHNAKTKPREEQYNSTYRVVSVLTVLHQDWLNGKEYKCKVSNKALPAPIEKTISKAKGQPREPQVYTLPPCREEMTKNQVSLSCAVKGFYPSDIAVEWESNGQPENNYKTTPPVLDSDGSFFLVSKLTVDKSRWQQGNVFSCSVMHEALHNHYTQKSLSLSPGK
EC50 (read off the curve) [1]: ~2 nM
EC50 (read off the curve) [2]: ~2 nM

B2: AZD9592 (bispecific antibody, human IgG1, kappa, lambda)
anti-EGFR heavy chain: QVQLVQSGAEVKKPGSSVKVSCKASGGTFSDNDFSWVRQAPGQGLEWMGAIVAVFRTETYAQKFQDRVKITADISTRTTYMELSSLRSEDTAVYYCARRLMSAISGPGAPLLMWGQGTLVTVSSASTKGPSVCPLAPSSKSTSGGTAALGCLVKDYFPEPVTVSWNSGALTSGVHTFPAVLQSSGLYSLSSVVTVPSSSLGTQTYICNVNHKPSNTKVDKRVEPKSVDKTHTCPPCPAPEFEGGPSVFLFPPKPKDTLMISRTPEVTCVVVDVSHEDPEVKFNWYVDGVEVHNAKTKPREEQYNSTYRVVSVLTVLHQDWLNGKEYKCKVSNKALPASIEKTISKAKGQPREPQVYTLPPCREEMTKNQVSLWCLVKGFYPSDIAVEWESNGQPENNYKTTPPVLDSDGSFFLYSKLTVDKSRWQQGNVFSCSVMHEALHNHYTQKSLSLSPGK
anti-EGFR light chain: QSALTQPRSVSGSPGQSVTISCTGTSSDVGGYNYVSWYQQHPGKAPKLMIYDVSKRPSGVPDRFSGSKSGNTASLTISGLQAEDEADYYCSSYTSSDTLEIFGGGTKLTVLGQPKAAPSVTLFPPCSEELQANKATLVCLISDFYPGAVTVAWKADSSPVKAGVETTTPSKQSNNKYAASSYLSLTPEQWKSHRSYSCQVTHEGSTVEKTVAPTEVS
anti-cMET heavy chain: QVQLVQSGAEVKKPGASVKVSCKASGYTFTDYYIHWVRQATGQGLEWMGWMNPNSGNTGYAQKFQGRVTMTRDTSISTAYMELSSLRSEDTAVYYCARGQGYTHSWGQGTMVTVSSASTKGPSVFPLAPSSKSTSGGTAALGCLVKDYFPEPVTVSWNSGALTSGVHTFPAVLQSSGLYSLSSVVTVPSSSLGTQTYICNVNHKPSNTKVDKRVEPKSCDKTHTCPPCPAPEFEGGPSVFLFPPKPKDTLMISRTPEVTCVVVDVSHEDPEVKFNWYVDGVEVHNAKTKPREEQYNSTYRVVSVLTVLHQDWLNGKEYKCKVSNKALPASIEKTISKAKGQPREPQVCTLPPSREEMTKNQVSLSCAVKGFYPSDIAVEWESNGQPENNYKTTPPVLDSDGSFFLVSKLTVDKSRWQQGNVFSCSVMHEALHNHYTQKSLSLSPGK
anti-cMET light chain: DIQMTQSPSTLSASVGDRVTITCRASEGIYHWLAWYQQKPGKAPKLLIYKASSLASGVPSRFSGSGSGTEFTLTISSLQPDDFATYYCQQYSNYPPTFGGGTKLEIKRTVAAPSVFIFPPSDEQLKSGTASVVCLLNNFYPREAKVQWKVDNALQSGNSQESVTEQDSKDSTYSLSSTLTLSKADYEKHKVYACEVTHQGLSSPVTKSFNRGEC
EC50 (read off the curve) (Human cMET): ~0.07 nM
EC50 (read off the curve) [3]: ~10 nM
EC50 (read off the curve) [4]: ~10 nM
EC50 (read off the curve) (Human EGFR): ~1 nM
EC50 (read off the curve) [5]: ~2 nM
EC50 (read off the curve) [6]: ~2 nM
EC50 (read off the curve) [7]: ~3 nM
EC50 (read off the curve) [8]: ~3 nM

Next, values leading:

EC50 (read off the curve) [9]: ~1 nM
EC50 (read off the curve) [10]: ~0.7 nM
EC50 (read off the curve) [11]: ~0.4 nM
B3: Onartuzumab (antibody, V domains shown)
VH: EVQLVESGGGLVQPGGSLRLSCAASGYTFTSYWLHWVRQAPGKGLEWVGMIDPSNSDTRFNPNFKDRFTISADTSKNTAYLQMNSLRAEDTAVYYCATYRSYVTPLDYWGQGTLVTVSS
VL: DIQMTQSPSSLSASVGDRVTITCKSSQSLLYTSSQKNYLAWYQQKPGKAPKLLIYWASTRESGVPSRFSGSGSGTDFTLTISSLQPEDFATYYCQQYYAYPWTFGQGTKVEIK

IC50 (read off the curve) (human cMET-Fc): ~1 nM
EC50 (read off the curve) [12]: ~0.8 nM
EC50 (read off the curve) [13]: ~1 nM
B4: Telisotuzumab (antibody, V domains shown)
VH: QVQLVQSGAEVKKPGASVKVSCKASGYIFTAYTMHWVRQAPGQGLEWMGWIKPNNGLANYAQKFQGRVTMTRDTSISTAYMELSRLRSDDTAVYYCARSEITTEFDYWGQGTLVTVSS
VL: DIVMTQSPDSLAVSLGERATINCKSSESVDSYANSFLHWYQQKPGQPPKLLIYRASTRESGVPDRFSGSGSGTDFTLTISSLQAEDVAVYYCQQSKEDPLTFGGGTKVEIK
